According to the supplement of paper PMC10567573:

B1: TRIM39 (parent)
chain: YPCVLATEGFTSGRHYWEVEVGDK

Variants of: B1
Assay: protein stability index of a GFP-peptide fusion (GPS, HEK-293T) (PSI 1-6); higher = more stable
Settings: c terminus: a fixed tail appended
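Also: lentivirally expressed fusions sorted by FACS into six bins by GFP to DsRed ratio, PSI derived from sequencing read proportions per bin multiplied by bin number.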

Protein stability index, by site and new letter:
E18: N 2.38, K 1.73, Q 1.05, G 2.82, F 1.81, A 3.12, M 1.51, P 1.92, Y 2.71, D 1.45, W 2.2, H 1.43, S 2.72, I 1.89
W17: L 2.97, G 3.44, H 3.07, Y 2.24, P 3.54, C 3.22, K 2.76, A 3.49, V 2.44, N 3.77, T 3.6, S 3.62, R 2.88, F 2.41, M 3.21, E 3.84, D 3.88, I 2.95, Q 3.68
L5: M 1.46, R 1.54, Y 2.3, F 1.57, Q 2.31, A 1.87, S 2.26, G 1.87, T 2.16, P 1.56, I 1.69, W 2.18, N 2.58, E 2.34, C 1.22, D 2.17, V 1.74, K 2.21, H 1.36
V19: Q 2.86, L 2.35, R 2.4, F 2.21, A 1.96, E 2.59, M 2.63, T 1.41, H 2.85, W 2.21, I 2.19, K 2.98, C 2.18, N 2.54, P 2.13, S 1.93, Y 2.64, D 3.18, G 2.6
E8: N 1.85, H 1.93, R 1.58, F 2.06, L 1.89, S 1.25, Y 1.35, I 2.16, D 1.93, V 2.14, Q 1.87, P 1.62, G 2.09, A 1.33, M 2.25, T 2.01, K 2.25
V21: D 2.2, G 1.84, E 1.77, L 1.57, F 1.95, I 2.24, K 2.15, A 2.51, H 1.86
C3: V 2.01, R 2.99, F 1.86, W 1.97, E 3.41, K 1.48, G 1.98, Q 1.9, L 2.09, H 1.98, N 1.7, T 1.81, M 1.91, I 2.41, Y 1.98, S 2
A6: I 2.09, G 2.38, D 2.12, H 1.99, P 1.75, Y 1.43, F 1.27, L 1.45, Q 2.47, M 1.4, T 3, E 1.71, W 2.16, V 1.89, K 1.59, S 1.44, R 1.36, N 2.47, C 1.44
T11: I 2.59, C 1.73, Y 3.04, G 2.09, W 2.66, F 2.55, E 2.39, S 1.58, V 1.44, M 1.73, L 1.89, Q 1.72, D 2.17, A 1.97, K 2.19, R 2.82, P 2.19, N 2.67, H 1.71
Y16: G 2.98, H 2.04, P 1.78, K 2.38, Q 2.16, T 1.35, D 3.52, A 2.38, M 2.45, R 2.02, V 2.08, I 2.33, F 1.2, S 1.75, W 4.12, L 1.76, E 2.6, C 1.5, N 2.56
R14: H 1.71, M 1.66, S 2.07, A 2.37, E 3.04, G 2.48, I 2.17, W 1.66, C 1.79, P 2.32, T 2.27, N 1.91, D 2.66, V 2.06, L 2.45, K 1.69, Q 2.36, Y 1.95, F 1.81
S12: K 1.95, A 2.15, W 1.98, T 1.76, V 1.6, H 1.67, C 1.96, Y 1.68, I 2.33, Q 1.66, F 1.34, G 1.6, R 2.79, D 2.79, M 3.54, N 1.95, P 1.81, L 1.97
E20: M 1.59, W 2.16, R 3.35, P 1.57, C 2.73, H 1.58, T 2, I 1.96, F 1.93, K 2.4, D 1.98, N 2.06, V 2.31, G 3.06, A 2.14, L 2.32, Y 1.96, Q 1.51
G13: A 1.48, P 1.74, E 1.87, H 1.46, D 2.24, K 2.39, L 1.95, C 1.91, I 1.73, S 2.03, Y 1.2, F 1.56, N 1.57, V 2.15, M 1.59, R 2.09, Q 1.71, T 1.72, W 1.47
V4: D 2.54, Y 2.41, H 1.52, E 2.88, R 1.78, M 2.06, P 2.01, K 1.79, A 1.73, I 1.85, G 2.69, W 1.74, L 2.13, Q 1.46, N 1.85, S 1.61, F 2.18, C 2.03, T 1.68
T7: Y 1.09, V 1.79, Q 1.56, F 2.32, H 1.59, L 1.98, K 2.46, G 1.77, D 1.74, P 1.75, C 1.84, A 2.27, N 2.45, E 2.16, I 1.63, S 1.57
F10: V 1.66, P 2.12, N 2.34, A 1.55, S 1.9, T 2.49, I 2.15, E 2.77, K 1.4, G 2.48, L 1.86, W 1.85, Q 1.63, D 2.45, Y 2.26, H 1.86, R 2.41, M 2.69
G9: Q 2.04, A 2.49, S 1.81, C 1.57, R 2.38, I 1.05, Y 2.22, W 1.96, E 2.2, F 2.97, N 1.99, P 2.21, V 1.81, T 2.03, H 1.6, K 1.8, M 1.66, D 2.01
H15: C 2.2, V 2.27, Y 2.58, R 1.97, A 2.61, L 1.56, E 3.05, I 1.22, G 1.98, K 2.06, D 2.93, M 1.32, F 1.9, W 2.1, N 2.76, P 2.16, T 2.17, Q 2.6, S 2.16
